First the molecules themselves.
B1: nano-FIP200(1450–1594) (domain or fragment, human, UniProt Q8TDY2 1450-1594, looked up)
chain: HMLSEEKQRIMLLERTLQLKEEENKRLNQRLMSQSMSSVSSRHSEKIAIRDFQVGDLVLIILDERHDNYVLFTVSPTLYFLHSESLPALDLKPGEGASGASRRPWVLGKVMEKEYCQAKKAQNRFKVPLGTKFYRVKAVSWNKKV
notes: FIP200 (RB1CC1), human, residues 1450-1594; the construct of the analytical gel filtration with Optineurin fragments; also called FIP200 Claw domain; source: E. coli BL21 (DE3), purified (Ni-NTA, size-exclusion chromatography)
B2: Optineurin LIR synthetic peptide (un-phosphorylated) (peptide)
peptide: {FITC}-SSEDSFVEIRMAE
notes: Optineurin, human, LIR region; also called un-phosphorylated Optineurin LIR peptide; source: synthetic peptide, bought: ChinaPeptides (>98% pure)
B3: CCPG1 FIR2 S104E (phosphomimetic mutant, residues 99–113) (domain or fragment, human, UniProt Q9ULG6 99-113, looked up)
chain: TASDDEDIVTLEPPK
notes: CCPG1, human, FIR2, residues 99-113; also called phosphomimetic S104E mutant of CCPG1 FIR2; source: E. coli BL21 (DE3), purified (Ni-NTA, size-exclusion chromatography)
B4: CCPG1 FIR2 synthetic peptide (residues 99–113) (peptide)
peptide: TASDDSDIVTLEPPK
modifications: also: FITC on N-terminus in fluorescence polarisation assay only
notes: The results speak of a 13-residue peptide; also called un-phosphorylated CCPG1 FIR2; wild-type CCPG1 FIR2; source: synthetic peptide, bought: ChinaPeptides (>98% pure)
B5: Optineurin(169–185) S177E (phosphomimetic mutant) (domain or fragment, human, UniProt Q96CV9 169-185, looked up)
chain: NSSGSSEDEFVEIRMAE
notes: also called S177E mutant of Optineurin LIR; source: E. coli BL21 (DE3), purified (Ni-NTA, size-exclusion chromatography)
B6: Optineurin(169–185) S177E/F178Y (domain or fragment, human, UniProt Q96CV9 169-185, looked up)
chain: NSSGSSEDEYVEIRMAE
notes: also called F178 of the S177E mutant of Optineurin LIR replaced by Tyr; source: E. coli BL21 (DE3), purified (Ni-NTA, size-exclusion chromatography)
B7: Optineurin(169–185) S177E/F178W (domain or fragment, human, UniProt Q96CV9 169-185, looked up)
chain: NSSGSSEDEWVEIRMAE
notes: also called F178 of the S177E mutant of Optineurin LIR replaced by Trp; source: E. coli BL21 (DE3), purified (Ni-NTA, size-exclusion chromatography)
B8: FIP200 Claw domain (residues 1490–1594) (domain or fragment, human, UniProt Q8TDY2 1490-1594, looked up)
chain: SRHSEKIAIRDFQVGDLVLIILDERHDNYVLFTVSPTLYFLHSESLPALDLKPGEGASGASRRPWVLGKVMEKEYCQAKKAQNRFKVPLGTKFYRVKAVSWNKKV
notes: 15N-labelled in the NMR titrations; also called RB1CC1; source: E. coli BL21 (DE3), purified (Ni-NTA, size-exclusion chromatography); not shown: Trx (inferred from the cleaved 3C protease site), N-terminal, cleaved; His6, N-terminal, cleaved
B9: S177-phosphorylated Optineurin LIR synthetic peptide (p-Optineurin LIR) (peptide)
peptide: SSED[pS]FVEIRMAE
modifications: also: N-terminal FITC in fluorescence polarisation assay only
notes: source: synthetic peptide, bought: ChinaPeptides (>98% pure)

In data set [1] the target is T1, p-Optineurin(33–209), Optineurin(33–209) phosphorylated by TBK1 (human, UniProt Q96CV9 33-209, phosphoserine at 177 (the major site phosphorylated by TBK1, by mass spectrometry)).
T1 construct: S177 is called the major site; other phosphorylated sites are not excluded; source: E. coli BL21 (DE3), purified; phosphorylated in vitro by purified Trx-TBK1(1–674) from Sf9 cells
T1 sequence (Q96CV9 33-209): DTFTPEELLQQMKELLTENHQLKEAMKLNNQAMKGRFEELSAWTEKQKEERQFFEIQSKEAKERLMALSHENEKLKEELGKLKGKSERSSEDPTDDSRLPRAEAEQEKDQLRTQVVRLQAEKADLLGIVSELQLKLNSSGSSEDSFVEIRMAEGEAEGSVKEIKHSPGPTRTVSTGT
The data set can be described thus: SEC; analytical gel filtration of purified proteins and their mixtures; Superose 200 increase 10/300 GL; 20 mM Tris-HCl pH 7.9, 100 mM NaCl, 1 mM DTT. Conditions: both partners purified.

Data set [2] deals with B8. The data set can be described thus: fluorescence polarisation; FITC-labeled peptide (~0.25 μM) titrated with increasing amounts of protein; 20 mM Tris pH 7.9, 100 mM NaCl, 1 mM DTT, 25 °C; one-site binding model. The conditions noted are these: both partners purified. Background: In fluorescence polarisation assays a small probe gives low polarisation when free and higher when bound to something large.

For data set [3], the target named is B8. The data set can be described thus: AUC; sedimentation velocity, 142,250 x g, 20 °C; FIP200(1490–1594) alone, CCPG1 FIR2 S104E alone, and FIP200(1490–1594) mixed with excess CCPG1 FIR2 S104E. Conditions: both partners purified.
For a further data set, the target named is T2, GABARAP (UniProt O95166 1-117).
T2 construct: GABARAP, one of the six mammalian ATG8 family proteins; construct not described; also called ATG8 family protein; mammalian ATG8 orthologue; source: bacteria (15N-labelled form grown in M9 minimal medium); construct not described
T2 sequence (O95166 whole entry): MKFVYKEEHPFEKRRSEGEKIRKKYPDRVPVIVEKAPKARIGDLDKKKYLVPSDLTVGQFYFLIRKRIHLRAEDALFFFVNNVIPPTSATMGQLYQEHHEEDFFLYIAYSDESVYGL
The data set can be described thus: fluorescence polarisation; FITC-labeled peptide (~0.25 μM) titrated with increasing amounts of protein; 20 mM Tris pH 7.9, 100 mM NaCl, 1 mM DTT, 25 °C; one-site binding model. Conditions: both partners purified.

The data set “nano-FIP200(1450–1594)” deals with B1. The data set can be described thus: SEC; analytical gel filtration of purified proteins and their mixtures; Superose 200 increase 10/300 GL; 20 mM Tris-HCl pH 7.9, 100 mM NaCl, 1 mM DTT. Conditions: both partners purified.
Data set [4] deals with the molecule itself. The data set can be described thus: AUC; sedimentation velocity, 142,250 x g, 20 °C; FIP200(1490–1594) alone, CCPG1 FIR2 S104E alone, and FIP200(1490–1594) mixed with excess CCPG1 FIR2 S104E.

Experimental findings from publication PMC7946963, “Phosphorylation regulates the binding of autophagy receptors to FIP200 Claw domain for selective autophagy initiation” (Nature Communications, 2021) are described below.

Square brackets hold non-standard residues; d marks the D form. Ends that are not written are not given here. * marks the point of attachment. FITC = O=C1OC2(c3ccc(O)cc3Oc3cc(O)ccc32)c2ccc(NC(=S)*)cc21; pS = N[C@@H](COP(=O)(O)O)C(=O)O

Regarding B1, the binding result in data set [1] is on record as “binds”.

Take B2: the Kd (in general, the constant that tells how readily two partners part at equilibrium) in data set [2] was approximately 307 µM. On to B3, for which the stoichiometry N (usually the number of molecules, sites or subunits per partner or assembly) in data set [3] is 1 CCPG1 FIR2 S104E per FIP200 chain (2:2). As to B4, the binding result in data set [2] is given as “binds”. The Kd with GABARAP is approximately 27 µM.

Take B5: the binding result with nano-FIP200(1450–1594) is “binds”. As to B6, the binding result with nano-FIP200(1450–1594) was “binds”. Consider B7, for which the binding result with nano-FIP200(1450–1594) is “binds”. Regarding B8, the “stoichiometry N” value in data set [4] is 2. Regarding B9, in data set [2], the Kd is approximately 12 µM.
